Results: the nanobody polyreactivity screen of Harvey et al. (2022)

Assay: yeast display, Sf9 membrane polyspecificity reagent, FACS + sequencing; frameworks hold sequencing errors
Summary of the method: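 Synthetic nanobody libraries on Saccharomyces cerevisiae BJ5465 were galactose-induced for 36–48 hours, stained 1 hour at 4 °C with 10% biotinylated, detergent-solubilized Sf9 membrane reagent and enriched on streptavidin microbeads. FACS then separated cells into low and high (top ~1%) gates by anti-HA (expression) and streptavidin (reagent binding) fluorescence. Genes were colony-PCR amplified, MiSeq 2 × 250 sequenced and CDR-length filtered. A clone's polyreactivity label is that of its gate of origin.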

Sequence | polyreactivity (PSR sort gate)
QVQLVESGGGLVQAGGSLRLSCAASGSIFGENARGWYRQAPGKERELVAAITSGGSTYYADSVKGRFTISRDNAKNTVYLQMNSLKPVDTAVYYCAASGRVGPGYWYDSWGQGTQVTVSS | low polyreactivity
QVQLVESGGGLVQAGGSLSLSCAASGRIFYRYAMGWYRQAPVKERELVAAISGSVGSTYADSVKGRFTISRDNAKNTVYLQMISLKPEDTAVYYCARETYRRYGAYDYWGQGTQVTVSS | low polyreactivity
QVHLVESGGGLVQAGGSLRLSFDASGRIFYRNVMGWYRQAPGKERELVATITWGGSTYYADSVKGRFTISRYNEKNTVYLQMNSLKPEDTAVYYCATVRSRLFGQYYYWGQGTQVTVTS | high polyreactivity
QVQLVESGGGLVQAGGSLRLSCAASGRIFSLYAMGWYRQAPGKERELVAAISSSGGRTYYADSVKGRFTISRDNAKNTVYLQMNSLKPEDTAVYYCADLVFSWWTFEYWGQGTQVTVSS | high polyreactivity
QVQLVESGGRLVQEGGSLRLSCAASGRTLYDYAMGWYRQAPGKERELVAGITWRGGSTSYAASVKGRFTISRDNAKNTVYLEMNSLKPEDTAVYDCATDGDERMDYWGQGTQVTVAS | low polyreactivity
QVQLQESGGGLVQAGGSLRLSCAASGYISHAVEMCWYRQAPGKEHELVASISNGGSTNYADSVKGRFTISRDNAKNTVYLQMNSLKSEDTAVYYCAGWTGQVDIHYYWGQGTQVTVSS | low polyreactivity
QVQLVESGGGLVQAGGSLRLSCAASGRTFHGNAKGWYRTAPGKERELVAAISYSGGRTYYADSVKARFTISRDNAKNTVYLQMNSLKPEDTAVYYCAAWGSSYSFDYWGQGTQVTVSS | high polyreactivity
QVQLVESVGGLVQAGGSLRLSCAASGVIFYFYTMGWSRQAPGKERELVAGITWSGDSTYYADSVKGRFTISRDNAKNTVYLQMNSLTPEDTAVYYCAAGFDFGTRVSKGYDYWGHGTQVTVSS | low polyreactivity
QVQLVESGGGLVQAGGSLRLSCAASGFTSRNYAMGWYSQARGKARELVAVFSKSGTSTYYADSVKGRFTISRDHAKNTVYLQMTSLKPEDTAVYYCSADTGHLSNSMDYWGQGTQVTVSS | high polyreactivity
QVQLVESGGGLVQAGGSLRLSCAASGFISPPYAMGWYRQAPGKERELVAAIRSSGGSTYYADSVKGRFTISRDNPKNTVYLQMNSLKPEDTAVYYCNADWIYISSYGWYSYDYWGQGTQVTVSS | high polyreactivity
QVQLGESGGGLVQAGGTLRVSCAPSGITFYGYAMGWYRQAPGKERELVAAINRGGTGTYYADSVKGRFTISRDNAKNTVYLQMNSLKPEDTAVYYCNKAGYPIADPTAGKRQFDNWGHGTQVTVSS | low polyreactivity
QVQLVESGGGLVQAGGSLRLSCAASGRIIYENAMGWYRQAPGKEREFVAAITGSGGSTYYADSVKGRFTISRDNAKNTVYLQMISLKPEDTEVYYCAAPLSSYWVYIVRYGYDYWGQGTQVTVSS | low polyreactivity
QVQLVESGGGLVQAGGSLRLSCAASGRIFKINAMGWYRQAPGKERELVATITRDGRTYYADSVKGRFTISRDNAKNTVYLQMNSLKPEDTAVYYCNVRRAFSGWRGYDYWGQGTQVTVSS | high polyreactivity
QVQLVESGGGLVQAGGSLRLSCAASGFIFGKFAMGWYRPAPGKERELVAAITSDGRTYYADSVKGRFTISRDNAKNTVYLQMNSLKPEDTAVYYCAVDYYWYWYSGYDDYWGQGTQVTVSS | high polyreactivity
QVQLVESGGGLVQAGGSLRLSCAASGRTFGINAMGWYRQAPGKERELVAVISFGEGGTYYADSVKGRFTISRDNAKNTVYLQMNSLKPEDTAVYYCATDYQSTSVWGGHFVINPYDYWGLGTQVTVSS | low polyreactivity
QLQLVESGGGLVQAGGSLRLSCAASGFTFRWNGMGWYRQAPGKERELVPSISSTGGSTYYADSVKGRFTISRDNAKNTVYLQMNSLKPEDTAVYYCNAVVTYHYSVTSVGSRFDYWGQGTQVTVSS | high polyreactivity
QVQLVESGGGLVQAGGSLRLSCAASGGTFSFNAMGWSRQAPGKEREVVAAITSDDGTNDADSVKGRFTISRDNAKNTVYLQMNSLKPEDTAVDYCAAESRFEGWGQGTQVTVSS | low polyreactivity
QVQLVESGGGLVQAGGSLRLSCAASGRTFYAYAMGWYRQAPGKDRELVAAITLSTGTTYYADSVKGRFTISRDNAKNTVYLQMNSLKPADTAVYYCAVEGYWYAGWYAMDYWGQGTQVTVSS | low polyreactivity
QVQLVESGGGLVQAGGSLRLSCAASGLIFPYYAMGWYRQAPGKERELVAAISRSGDSTYYADSVKGRFTISRDNAKITVYLQMNSLKPEDTAFYYCAAVLSYSYVRYNYWGQGTQVNVSS | high polyreactivity
QVQLVESGGGLVQAGGSLRLSCAASGSTFPKNAMGWYRQAPGKERELVAAINTGGSTYYADSVKGRFTISLDNAKYTVYLQMNSLKPEDTAVYYCAARDNYHRDVGHPYDYWGQGTQVTVSS | low polyreactivity
QDQHVESGGGVVQARGSLRLICDASGFTIQRSAMGWYRQAPGKERELVAAISSGGSTYYADSVKGRFTFSRDNAKNTVYLQMNSLKPEDTAVYYCAARPIPRYYGKFWRVDYWGQGTQVTVSS | high polyreactivity
QVKLVESGGGLVQAGGSLRLSCAASGSISLYYAMGWYRQAPGKERELVAAISDSGGDTYYADSVKGRFTISRDNAKITVYLQMNSLKPADTAVYYCATDTAYWLWVYALLEYWGQGTQVTVSS | low polyreactivity

Sequence | polyreactivity (PSR sort gate)
QVQLVESGGRLVQAGGSLRLRCAASGFIFGWYTMGWYRQAPGKERELVASISRSGGSTYYADSVKGRFTISRDNEKNTVYVQMNSLKPEDTAVSYCAKRSLVDAHGYWGQGTQVTVSS | high polyreactivity
QVQLVESGGGLVQAGGSLSLSCAASGRIFVRNSMGWYRQEPGKETELVADITNGGSTNYADSVKGRFTISRDNAKNTVYLQMNSQKPEDTAVYYCAADTLGVYDGDYWGQGTQVTVSS | low polyreactivity
QVQLVESGGGLVQAGGSLRLSCAASGRIFRYNAMGGYRQAPGKERELVAAITWRGGSTYYADSVKGRFTISRDNAKNTVYLQMNSLKPEDTAVYYCNKVDSLTFEYDYWGQGTQVTVSS | high polyreactivity
QVQLVESGGGLVQAGGSLRLSCAASGFTFYLYTMAWYRQAPGKERELVATITSDGGTNYADSVKGRFTISRDNAKNTVYLQMNSLKPEDTAVYYCARTARRRYQPYEYWGQGTQVTVSS | low polyreactivity
QVQLVESGGGLVQAGGSLRLSCAASGRTYYPNAIGWYRQAPGKEMDLVADITYSGASTYYADSVKGRFTISRDNAKNTVYLQMNSLKPEDTAVYYCAVPGATSYFAYDSWGQGTQVTVSS | low polyreactivity
QVQLVESGGGLVQAGGSLRLSCAASGSTFYLNAMGWYRQAPWKERELVASITWRGGSTYYADSVKGRFTISRDNAKNTVYLQMNSLKPEDTGVYYCAADATRLRTRYKRDYWGQGSQVTVSS | high polyreactivity
QVQHVESGGGLVQAGGSLRLSCAASGRIFGYYAMGWYRQAPGKERELVAAISRGGSTNYADSVNGRFTISLDNAKNSVYFQMNSLNPEDTAVYYCAADVASARYYHGYNYWGQGTQVTLSS | high polyreactivity
QVQLEESGGGLVQAGASLRLSCAASGRTFPRYAMGWSRQAPGKERELVAAITSSGGSTNYADSVKGRFTISRENATNSVYLQMYSLKPEDTAVYYCNARFPTQYILWSSSPYGYWGQGTQVTVSS | low polyreactivity
QVQLGESGGGLFQAGGSLRLSCAASGFTFVYYAMGWYRQAPGKERELVATISGNGGRTYYADSVKGRFTISRDNAKNTVYLQMNSLKPEDTAVYYCAALLYISSVGYDYWGQGTQVTVSS | low polyreactivity
QVQLVESGGGLVQAGGSLRLSCAASGFTFPGYTKGWYIQAPGKERELVATISRSGGSMFYADSVKGRFTISRDNAKNTVYLQMNSLKPEDTAVYYCNKSPSWWRYKTGLDYWGQGTQVTVSS | high polyreactivity
QVQLVESGGGLVQAGGSLRLICAASGSIFFSYAMGWYRQAPGKERELVAAIDYSGGGTYYADSVMGRFTISRDNAKNTVYLQMNSLKPEDTAVYYCNSDTEVWADTFISYRALNYWGQGTQVTVSS | low polyreactivity
QVQLVESGGGLVQAGGSLRLSCAASGRILTTNAMGWYRQAPGKERELVAAITRSGGRTYYADSVKGRFTISRDNAKNTVYLQMNSLKPEDTAVYYCAAATSPGIYDYWGQGTQVTVSS | high polyreactivity
QVQLVESVGCLVQAGGSLRLSCATSGSIFRYYTMGWYRQPPGKERELVARISSSGSTNYADSVKGRFTISRDNGKNTVYLQMNSLKPEDTAVYYCAARGFSWAGYFYWGQGTQVTVSS | low polyreactivity
QVQLVESGGGLVQAGGSLRLSCAASGRTFYTYAMGWYRQAPGKARELVAAISSSGSTYYADSVKGRFTISRDNAKNTVDLQMNSLKPEDTAGYYCNARTSRYRRGGDSWGQGTQVTVSS | high polyreactivity
QVQLEESGGGLVQAGGSLRLSCAASGFNFFRNTMGGYRQAPGKERELVAGIRYSGGSTYYADSVKGRFTISRDNAKNTVYLQMNSLKPEDTAVYYCAARSHRRLMYYWGQGTQVTVSS | high polyreactivity
QVQLVESVGGLVQAGGSRRLTSAASGRTFREYAMGWYRQAPWKERELVAAISDSGDSTYYADSVKGRFTISRDNAKNTVYLQMNSLKPEDTAVYYCAADYYDYEYDYWGQGTQVTVSS | low polyreactivity
QVQLVESGGGLVQAGGSLRLSCAASGSIIATNAMGWYRQAPGKERELVAAISRSAGRTYYADSVKGRFTISRDNAKNTVYLQMNRLKPDDTAVYYCNAVFPGVTNQMDYWGQGTQVTVSS | high polyreactivity
QVQLVESGGGLVQAGGSLRLRGAASGSIFSSNAKGWCRPAPGKERELVAAICRSGGDTYYADSVKGRFTISRDNAKNTVYLQMNSLKPVDTAVYYCAARNSYGGPTYEHYYWGQGTQVSVSS | high polyreactivity
QVQLVESGGVLVQAGGSLRLSCAASGSIFEPYVMGWYRQPPGKERELVAAIRQSGGSTYYADSVKGRFTISRDNAKNTVYLQMNSLKPEDTAVYYCNAEQNPSGLYDYRGVEGEMGYWRQGTQVTVSS | low polyreactivity
QVQLVESGGGLVQAGGSLRLSCAASGSTFGNYAMGWYRQAPGKERELVAVITSAGSTYYADSVKGRFTISRDNAKNTVYLQMNSLKPDDTAVYYCNTGKHVRYYYWGQGTQVTVSS | low polyreactivity
QVQLVESGGGLVQAGGRLRLSCAASGRIFSYAMGWYRHAPGNERELVGGISRSGGSTYYADSVKGRFTISRDNAKNTVYLQMNSQKPVDTAVYYCAADSSLSASEYDSWGQGTQVTVSS | high polyreactivity
